In US20250223606 one finds activity data, which are given here for 2 substances.

The test system of data set [1] is TALED psaA Right (TALE array-split DddAtox/TadA-derived AD) (synthetic construct). Kind of data set: cell_activity. The following applies: pair with P3; A6 14.66 and 12.27, A5 10.67 and 7.68; lettuce protoplasts 7 days after mRNA.
For data set [2], the system named is TALED psaA Left (TALE array-split DddAtox/TadA-derived AD) (synthetic construct). Briefly: cell_activity. To be noted: pair with P4; A6 14.66 and 12.27, A5 10.67 and 7.68; lettuce protoplasts 7 days after mRNA; callus A5 8.4 and 7.5, A6 12.2 and 10.0.

Take “lettuce chloroplast psaA start codon, right half-site”: the activity in data set [1] is 14.7 % editing. In turn, “lettuce chloroplast psaA start codon, left half-site” displayed an activity in data set [2] of 14.7 % editing.
